Test results: patent US20140286952A1 (BOARD OF SUPERVISORS FOR THE UNIVERSITY OF LOUISIA SYSTEM …, published 2014)
Each block holds one molecule with its values, some of them ahead of it.

What was measured:
[1] = target: zonula occludens-1 (ZO-1), endogenous protein of prostate cancer cells and tumor specimens (UniProt Q07157); assay: in situ proximity ligation assay in PC-3CTRwt cells, 50 nM CT for 30 seconds
[2] = target: zonula occludens-1 (ZO-1), endogenous protein of prostate cancer cells and tumor specimens (UniProt Q07157); assay: cell-based or functional assay
[3] = target: T1, zonula occludens-1 (ZO-1), endogenous protein of prostate cancer cells and tumor specimens (UniProt Q07157 1-1748, limits assumed); assay: GST pull-down from PC-3 cell lysates, ZO-1 immunoblot
T1 construct: whole, on cells; Intracellular protein; detected in cell lysates or fixed cells with anti-ZO-1 serum; The cells and tissues are human; also called tight junction protein 1; TJP-1

[4] = target: T1, zonula occludens-1 (ZO-1), endogenous …; assay: in situ proximity ligation assay in PC-3CTRΔESS cells
[5] = target: T2, ZO-1wt-YFP (wild-type ZO-1 fused to yellow fluorescent protein, ZO-1wt-EYFP-N1) (UniProt Q07157 1-1748); assay: acceptor photobleaching FRET microscopy in live PC-31 cells
T2 construct: whole, on cells; also called ZO-wt-YFP; ZO-1-YFP; not shown: EYFP of the EYFP-N1 plasmid
T2 sequence (Q07157 whole entry, the tested form may be a part): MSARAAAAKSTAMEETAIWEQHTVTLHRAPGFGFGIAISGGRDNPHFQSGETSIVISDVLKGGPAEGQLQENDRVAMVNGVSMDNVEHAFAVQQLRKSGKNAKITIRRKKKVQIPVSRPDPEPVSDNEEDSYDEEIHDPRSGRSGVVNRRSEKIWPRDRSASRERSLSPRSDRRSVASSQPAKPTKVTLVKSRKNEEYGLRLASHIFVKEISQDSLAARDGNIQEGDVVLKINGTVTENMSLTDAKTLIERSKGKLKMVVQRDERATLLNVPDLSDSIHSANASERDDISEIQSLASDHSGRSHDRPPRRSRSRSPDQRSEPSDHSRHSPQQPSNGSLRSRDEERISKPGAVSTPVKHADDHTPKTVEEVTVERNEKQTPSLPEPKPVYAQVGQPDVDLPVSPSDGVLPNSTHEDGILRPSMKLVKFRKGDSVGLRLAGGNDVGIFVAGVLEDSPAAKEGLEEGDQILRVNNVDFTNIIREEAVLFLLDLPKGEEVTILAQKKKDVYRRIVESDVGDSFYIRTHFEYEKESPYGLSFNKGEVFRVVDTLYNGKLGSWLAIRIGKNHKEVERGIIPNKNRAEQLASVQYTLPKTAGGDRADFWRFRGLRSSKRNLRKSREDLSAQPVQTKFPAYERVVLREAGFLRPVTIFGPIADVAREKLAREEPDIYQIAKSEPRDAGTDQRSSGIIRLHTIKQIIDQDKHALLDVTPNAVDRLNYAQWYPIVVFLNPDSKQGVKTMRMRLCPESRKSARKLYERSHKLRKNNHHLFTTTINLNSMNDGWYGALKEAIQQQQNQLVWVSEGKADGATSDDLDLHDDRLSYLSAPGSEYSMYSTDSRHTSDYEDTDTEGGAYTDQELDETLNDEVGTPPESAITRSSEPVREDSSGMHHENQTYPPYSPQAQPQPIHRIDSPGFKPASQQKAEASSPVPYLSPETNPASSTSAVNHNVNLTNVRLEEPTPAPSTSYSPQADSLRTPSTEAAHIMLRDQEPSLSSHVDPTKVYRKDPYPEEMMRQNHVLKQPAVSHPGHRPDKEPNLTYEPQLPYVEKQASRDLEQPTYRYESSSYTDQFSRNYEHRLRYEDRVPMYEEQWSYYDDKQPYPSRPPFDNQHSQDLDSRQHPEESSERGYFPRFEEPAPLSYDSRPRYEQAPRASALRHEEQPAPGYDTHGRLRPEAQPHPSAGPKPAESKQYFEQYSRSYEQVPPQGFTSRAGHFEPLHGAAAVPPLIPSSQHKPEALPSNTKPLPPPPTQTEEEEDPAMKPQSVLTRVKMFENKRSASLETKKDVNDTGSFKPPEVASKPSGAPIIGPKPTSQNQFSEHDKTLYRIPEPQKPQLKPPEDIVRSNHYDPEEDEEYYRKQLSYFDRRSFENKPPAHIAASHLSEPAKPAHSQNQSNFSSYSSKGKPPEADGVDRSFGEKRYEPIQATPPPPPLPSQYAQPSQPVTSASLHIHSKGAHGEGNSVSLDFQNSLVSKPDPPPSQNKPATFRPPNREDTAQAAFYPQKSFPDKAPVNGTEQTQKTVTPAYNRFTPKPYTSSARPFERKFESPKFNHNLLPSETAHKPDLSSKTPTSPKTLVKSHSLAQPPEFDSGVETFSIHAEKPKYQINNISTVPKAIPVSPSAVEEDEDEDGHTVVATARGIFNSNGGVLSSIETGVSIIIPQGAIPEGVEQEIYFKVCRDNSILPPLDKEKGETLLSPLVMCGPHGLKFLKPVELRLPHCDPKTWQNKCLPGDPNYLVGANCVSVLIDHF

Sequence of zonula occludens-1 (ZO-1), endogenous protein of prostate cancer cells and tumor specimens (UniProt Q07157) (Q07157 whole entry): as the sequence (Q07157 whole entry, the tested form may be a part) above
T1 sequence (Q07157 whole entry): as the sequence (Q07157 whole entry, the tested form may be a part) above

B1: GST-CTR-CΔESS fusion protein (GST fused to the intracellular C-terminal domain of CTRΔESS, aa 441-476) (other, human, UniProt P30988 441-474, looked up)
chain: YICHQELRNEPANNQGEESAEIIPLNIIEQAAAA
notes: range 441-476; also called CTR-C-ΔPDZ; not shown: GST from the pGEX vector
binding result [3]: no binding (tested: 2 µg fusion protein)

B3: CTRΔESS-CFP (calcitonin receptor with ESSA replaced by AAAA, fused to cyan fluorescent protein, CTRΔESS-ECFP-N1) (receptor, human, UniProt P30988 25-474, looked up)
chain: AFSNQTYPTIEPKPFLYVVGRKKMMDAQYKCYDRMQQLPAYQGEGPYCNRTWDGWLCWDDTPAGVLSYQFCPDYFPDFDPSEKVTKYCDEKGVWFKHPENNRTWSNYTMCNAFTPEKLKNAYVLYYLAIVGHSLSIFTLVISLGIFVFFRSLGCQRVTLHKNMFLTYILNSMIIIIHLVEVVPNGELVRRDPVSCKILHFFHQYMMACNYFWMLCEGIYLHTLIVVAVFTEKQRLRWYYLLGWGFPLVPTTIHAITRAVYFNDNCWLSVETHLLYIIHGPVMAALVVNFFFLLNIVRVLVTKMRETHEAESHMYLKAVKATMILVPLLGIQFVVFPWRPSNKMLGKIYDYVMHSLIHFQGFFVATIYCFCNNEVQTTVKRQWAQFKIQWNQRWGRRPSNRSARAAAAAAEAGDIPIYICHQELRNEPANNQGEESAEIIPLNIIEQAAAA
notes: whole, on cells; also called CTRΔESS (CTRΔPDZ)-CFP; not shown: ECFP of the ECFP-N1 plasmid
binding result [5]: no binding

The remaining lines, values ahead:

fold increase in CTR-ZO-1 interactions (PLA dots) after CT against no CT [1]: 80 fold | decrease in transepithelial electric resistance (TER) of polarized PC-3 cells [2]: 40% | invasion through Matrigel after 50 nM CT [2]: 2.5 fold
Molecule: FLAG-CTRwt (full-length wild-type calcitonin receptor, FLAG-tagged, expressed in PC-3 / PC-31 cells) (from UniProt P30988 25-474)

binding result [4]: no binding
B2: FLAG-CTRΔESS (full-length calcitonin receptor with the C-terminal PDZ-binding motif ESSA replaced by AAAA, FLAG-tagged) (receptor, human, UniProt P30988 25-474, looked up)
chain: AFSNQTYPTIEPKPFLYVVGRKKMMDAQYKCYDRMQQLPAYQGEGPYCNRTWDGWLCWDDTPAGVLSYQFCPDYFPDFDPSEKVTKYCDEKGVWFKHPENNRTWSNYTMCNAFTPEKLKNAYVLYYLAIVGHSLSIFTLVISLGIFVFFRSLGCQRVTLHKNMFLTYILNSMIIIIHLVEVVPNGELVRRDPVSCKILHFFHQYMMACNYFWMLCEGIYLHTLIVVAVFTEKQRLRWYYLLGWGFPLVPTTIHAITRAVYFNDNCWLSVETHLLYIIHGPVMAALVVNFFFLLNIVRVLVTKMRETHEAESHMYLKAVKATMILVPLLGIQFVVFPWRPSNKMLGKIYDYVMHSLIHFQGFFVATIYCFCNNEVQTTVKRQWAQFKIQWNQRWGRRPSNRSARAAAAAAEAGDIPIYICHQELRNEPANNQGEESAEIIPLNIIEQAAAA
notes: whole, on cells; also called FLAG-CTR-ΔPDZ; CTRΔPDZ; not shown: FLAG tag at the 5' end of the construct
